# From paper PMC6987092, “Characterization and diversity of the complete set of GH family 3 enzymes from Rhodothermus marinus DSM 4253” (Scientific Reports, 2020)
# B1: RmBgl3C (Rhodothermus marinus DSM 4252) (protein)
# chain: CQKAEQQPPSTAAFPPLSSYDEQARALLEQMTLEEKIGQMIQAEQAFLQDPYDIQTYHLGSILSGGNSDPADGNSLEAWTEVYDSLQAIALRTRLGIPLLYGIDAVHGHSNVEGAVVFPHHIGLGATRDPDLVERVYRITAIEMRATGIHWNFAPCIAVARDERWGRTYESFSEDPELVATLGAAAVRGLQNGGLNNPLAVLATAKHFAGDGGTAFGTGGPQGALLDQGDVRLDEATFRRIHVRPYIDAIQAGVGSIMVSYSSWNGVKMTGHKYMLTDVLKGELGFEGIVISDYNAIDQVHPDYKTAIEIAINAGIDMAMVPTRYREFFQLLKELVEEGRVPMERIDDAVLRILRVKFAMGLMDGPEHVFADRSLWAKFGSAEHRAVAREAVRKSLVLLKNENQTLPLAKDLGRIHVAGLHADNLGYQAGGWTIDWQGGSGDITEGTTILEAIRKAVAPGTEVTYSEDGSGAAGADVAIAVIGERPYAEFLGDRSDLSLDPDDVAVVRRLKEAGVPVVVILISGRPMIINDVLEMADAFIAAWLPGSEGDGVADVLFGDYAPTGKLPFSWPRSMDQIPINVGDEDYDPLFPFGYGLTY
# B2: RmNag3 (Rhodothermus marinus DSM 4252) (protein)
# chain: HRSELDTAPPDRTRPGAWTETQLRTLTLAQQIGQLFAVRARGVFQSVDDPDYRELVRLVEQFQVGGVIFFQGDPYSQAMLANELQRRSRLPLLIAQDTEWGVAMRVRRTTSFPRAMAIGATGNPDYAYAVGYVTAREARALGVHQLYAPVADVNNNPMNPIINVRAFGEDPLQVATMVRAFVRGVQDAGAIATAKHFPGHGDTSIDSHSDLPVLRFDRKRLDTLELVPFRAAIKAGVQSIMTGHLALPRLDPTPNLPASLSRRITHELLREELGFDGLVVTDALEMQGVTKHFGVGEAAVRALEAGADMLLLSEDVEAARSAILQAVAQGRLSRARIEASVRRILLAKERLGLHRERLVDLNAIPYVVGIAPHQALSQTIARASLTLLRNEGNLLPLPDVPATPRQLQVIILSDSDDPATGRFFVQTLREIAPDDRIASRLLDVRSHPDDYRAALEAAARADVVLVPAYLFVRSGTGRIRLPERQRTFLDALIAQGRPVVLIAFGNPYLIMDLQRPPAVYLAAYGGSESTQRAAVQAIFGQAPFTGRLPITIPGHFQRGDGLQLEQVAPRLAYPEEVGMSTQRLYRVDSLLRAAIADSAFPGAAVAIGRGPAIVWLKGYGHFTYTSDQRVTPSSVFDLASLTKVVVTTTAAMQLYEAGKLDLDAPVVRYLPEFGQNGKERVTIRQLLSHTAGLAPFHPFHRMGITTAEAVRQAILSDSLIYEPGTQSRYSDLGMIVLGWVIERITGQPLDRYAAEHIFRPLGMRHTGFRPVGRPDTTVVPTEIDTIFRHRLIQGEVHDETAWILGGVAGHAGLFSTAEDLARFAYMLVNEGRIGGRPFLKPETIRLFTTPVDPERAGTRALGWDTRSREGYSSAGRLFGSRSFGHTGFTGTSIWIDPDQQLFVILLTNRVYPTRENRKHLAVRARLADLAYEALIGPPTLNLNALLP
# notes: recombinant in E. coli BL21 C43 (pJOE3075), signal peptide removed, C-terminal His-tag, includes beta-lactamase domain; locus tag is that of the type strain DSM 4252T homolog, gene cloned from DSM 4253
# B3: RmBgl3A (Rhodothermus marinus DSM 4252) (protein)
# chain: MRTLRLLTLSLLWSGWLLPAIAQVDRAREDSLIEALLARMTLEEKLGQLTLYNGGMAETGPVVREGEPDAIRRGRVGAVMNFFGAEAVCAMQRQAVEESRLGIPLLFALDVIHGFRTIFPVPLAEAATFDPALVEQAARVAAGEASAVGLNWTFAPMVDIARDARWGRIVEGSGEDPYLGAVMAAARVRGFQGRDLRDPTTILATAKHFAAYGAAEAGRDYNTVDVSERTLREVYLPPFEAAVRAGALSIMSAFNEIGGVPATADRWLLTDVLRHEWGFEGLVVSDYTSVWELLFHGIAADSAEVGRKALEAGVDMDMVSGIYVRKLAEEVRAGRLSEAVVDEAVRRVLRVKYRLGLFEDPYRYCRDASREQVLLSPAHRRLAREVARKAIVLLKNEGELLPLADTLQRVAVIGALANDSASVLGPWAAAGRPEDAVTILEGIRAALPGATVRYAPGYAEVPSGSFQEMVAAALSPDTSGFAEAEAVARWAEVVILVLGEHRELSGEAASRASVELPGVQLALAWRLLALGRPVVVVLMNGRPLAIPELAASAPAIVEAWFLGTEMGHAVADVLLGKASPGGRLPVSFPRATGQEPLYYNHKPTGRPPRAEEKYTSKYVDVPWTPLYPFGYGLTYTTFAYDSLRLSRRRLGLDDTLEVVVSVTNTGRRRGEEVVQLYVRDEVASVTRPVKELKGFARVELAPGETKAVQFRLPVRALRFWGLEGGWVVEPGWFTLWVGPSSAEGLQARFEVVSP
# notes: recombinant in E. coli BL21 C43 (pJOE3075), C-terminal His-tag, no signal peptide predicted; locus tag is that of the type strain DSM 4252T homolog, gene cloned from DSM 4253
# B4: RmXyl3A (Rhodothermus marinus DSM 4252) (protein)
# chain: QERPAYLDPTLPIEVRVEDLLGRMTLEEKVAQMLSMRQTKRLIVDEQNRFDPSRAPEWFKLGIGRIERPSEYFQTAREAAAFTNAIQRWVRENTRLGIPVIFHEEALHGLRAAEATSYPQAIALASTWNPALVERVYGRIAREVRARGVHQVLAPVVDVGREPRWGRIEETFGEDPYLVAEMGKAAVWGLQGRRVPPVGPGHVIATLKHMAGHGQPESGINVAPVFFGERHLREVFLYPFREAVEKAHALSVMASYNEIDGIPSHANAWMLRDVLRGEWGFRGVIVSDWHGIPQLITRHHVAENLEEAARLALQATVDVELPDYEAYATLVDQVRRGLIPELAVDEAVRRLLWAKFAVGLFDGEPYVDEAEASRVNASEEDRALALEAAREAIILLKNDGLLPLEAGRLDRVAVIGPHAGEVLLGGYSGRPRYTVSILEGLRERLRGEAEVLYAEGVRITEDSVFTDEPQPHLGGTWARQRNAAHRVVFTPPEANRSRIEEAVALARTSDVVVLVVGGNEQTAREAYAPYHLGDRLSLRLPGQQEELVKAVLATGVPVVLVVIGGRPYVITELVDRVGAIVWGWYLGQETGRAVAEVLLGDYNPAGRLPITIPRHEGQLPAYYSHKPSKELDYVDGTSRPLFPFGYGLSYTRFAYRSVRLEPDRVGGCGVVRVLVELENVGDRAGDEVVQVYVRDRVSSVARPVKELKGFRRVHLGPGERKVVEIELGPEAFAFYGLEMERVVEAGWFDVLVGGNSEELISVPLEITEGCNLGR
# notes: locus tag is that of the type strain DSM 4252T homolog, gene cloned from DSM 4253
# B5: RmBgl3B (Rhodothermus marinus DSM 4252) (protein)
# chain: QSSRVDSLLAAMTLAEKISLLHGAIDPTGEAGAGYVPGVPRLGIPAMRLTDGPAGIRTRHPATALPAPVALAASFDPELAYRYGHVMGIEGRARRHEVLLSPMVNIVRVPEAGRNFETFSEDPLLSAEMVAAEVRGIQDAGMMATVKHYVANNFENDRMRVNVVVDERTLREIYLPGFEAAIKAGAAAVMCAYNRVNGPYACDNEMLLTDILRDEWGFEGWVMTDWFAGHSLESLVRGLDQEMPGYTIPFSSPDMPLAPAVFADSLLAAVESGRIDEAYVDRAVRRILVQMEQFGLLDGESTPPEINIEAHAAVAREVAEAGAVLLRNENQTLPLSERDLQHLVVIGPTATRPLIGGGGSSRVQPFRTTSTLAALQELAGPQAQIRYVPGIDLDGMPVPSSALRTPDGQPGLLRQGADGTTQVDAQLDFTGERALPPGSQWTWTGTLTAPTAGVYELKLQTAGGVGTLSIDGQPVLRTGMFFSDASLIPTADSLENATYRIELQAGQQLSLTVQISGQVPSLPFLPAGQNPVQVRLAWVTPERRAAFLEEAAEAARAAHAAIVFVYEEGTEGRDRETLALRPDQDALVEAVAAANPRTTVVMNVGAPTLMPWAERVGAILLMWYPGQEGGWATADVLLGRANPAGRLPVTFPRRAEDAPTASPERYPGVDLTARYDEGIFVGYRWYDAQQIEPLFPFGHGLSYTTFAYENLRVEPDGDGFVVRFVVRNTGDRAGSDVPQVYLGPPENPPVPMAVRQLVGFRRVTLAPGEAQEVTVRIDGRALSYWSVEDHAWVKATGRRTLYVGASARDLRLQTEIDVQ
# notes: recombinant in E. coli BL21 C43 (pET-21b(+)), signal peptide removed, C-terminal His-tag; locus tag is that of the type strain DSM 4252T homolog, gene cloned from DSM 4253
# Legend:
# RmXyl3B = target: T1, RmXyl3B (Rhodothermus marinus, UniProt D0MHL5); experiment: pNP release at […] nm; type: biochemical; conditions: 20 mM citrate phosphate pH 5.6, 60 °C
# T1 construct: gene Rmar_1081; locus tag is that of the type strain DSM 4252T homolog, gene cloned from DSM 4253
# purified protein [1] = substrate: O=[N+]([O-])c1ccc(O[C@@H]2O[C@H](CO)[C@@H](O)[C@H](O)[C@H]2O)cc1; experiment: purified protein; conditions: 20 mM citrate phosphate pH 5.6, 60 °C
# purified protein [2] = substrate: CC(=O)N[C@H]1[C@H](Oc2ccc([N+](=O)[O-])cc2)O[C@H](CO)[C@@H](O)[C@@H]1O; experiment: purified protein; type: biochemical, Rhodothermus marinus; conditions: 20 mM sodium phosphate buffer, 60 °C
# purified protein [3] = substrate: O=[N+]([O-])c1ccc(O[C@@H]2OC[C@@H](O)[C@H](O)[C@H]2O)cc1; experiment: purified protein; type: biochemical, Rhodothermus marinus; conditions: 20 mM citrate phosphate pH 5.6, 60 °C
# T1 sequence (D0MHL5 entry or part of it): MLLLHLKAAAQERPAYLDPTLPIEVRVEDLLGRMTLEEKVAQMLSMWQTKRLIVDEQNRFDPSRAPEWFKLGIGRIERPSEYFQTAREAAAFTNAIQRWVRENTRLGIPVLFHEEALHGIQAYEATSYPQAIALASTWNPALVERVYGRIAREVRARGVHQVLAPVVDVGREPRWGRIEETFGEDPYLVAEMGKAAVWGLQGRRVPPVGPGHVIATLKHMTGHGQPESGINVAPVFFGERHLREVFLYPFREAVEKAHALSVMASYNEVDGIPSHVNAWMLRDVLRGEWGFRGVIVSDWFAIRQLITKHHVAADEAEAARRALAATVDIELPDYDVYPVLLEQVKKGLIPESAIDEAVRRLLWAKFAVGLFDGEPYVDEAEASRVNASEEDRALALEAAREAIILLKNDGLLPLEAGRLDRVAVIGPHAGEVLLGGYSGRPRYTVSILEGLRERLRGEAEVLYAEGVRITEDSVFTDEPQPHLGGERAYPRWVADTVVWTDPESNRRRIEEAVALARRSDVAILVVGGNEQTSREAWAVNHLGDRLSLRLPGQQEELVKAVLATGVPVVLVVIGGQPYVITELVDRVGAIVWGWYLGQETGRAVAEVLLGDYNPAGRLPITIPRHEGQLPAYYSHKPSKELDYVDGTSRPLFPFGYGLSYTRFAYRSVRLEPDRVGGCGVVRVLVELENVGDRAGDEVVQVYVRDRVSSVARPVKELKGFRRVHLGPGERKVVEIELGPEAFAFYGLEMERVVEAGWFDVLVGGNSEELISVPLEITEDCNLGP
Km (RmXyl3B) [µM],Molecule,Km (purified protein [1]) [µM],kcat (purified protein [1]) [s⁻¹],kcat/Km (purified protein [1]) [M⁻¹ s⁻¹],Km (purified protein [2]) [µM],kcat (purified protein [2]) [s⁻¹],kcat/Km (purified protein [2]) [M⁻¹ s⁻¹],Km (purified protein [3]) [µM],kcat (purified protein [3]) [s⁻¹],kcat/Km (purified protein [3]) [M⁻¹ s⁻¹]
300,O=[N+]([O-])c1ccc(O[C@@H]2OC[C@@H](O)[C@H](O)[C@H]2O)cc1 [pNP-β-Xyl],–,–,–,–,–,–,–,–,–
1600 ± 400,O=[N+]([O-])c1ccc(O[C@@H]2O[C@H](CO)[C@@H](O)[C@H](O)[C@H]2O)cc1 [pNP-β-Glc],–,–,–,–,–,–,–,–,–
–,B1,1600 ± 900,67.2,42900,–,–,–,–,–,–
–,B2,–,–,–,100 ± 0,102 ± 3,1.31e+06 ± 50300,–,–,–
–,B3,100 ± 0,79.9,755000,–,–,–,11800 ± 1000,140.8 ± 0.6,12000
–,B4,6500 ± 800,29.2,4500,–,–,–,400 ± 0,50.1 ± 1.9,140000 ± 15700
–,B5,100 ± 0,49.5,511000,–,–,–,1200 ± 100,65.8 ± 0.4,56200 ± 700
